Key:
Conditions in all cases: both partners purified
[1] = target: T1, GST-p115-RH(42-252), the RGS box of p115-RhoGEF-RH which lacks the N-terminal extension (human, UniProt Q92888 42-252); test: pull-down; as a2 but buffer A with 10 μM GDP and mAAT-C_(1-17) added instead of AlF4^-
T1 construct: human p115RhoGEF, residues 42-252 (RGS box, lacks the N-terminal extension); also called p115-RhoGEF-RH domain (42–252); source: E. coli BL21[DE3], purified (glutathione-sepharose 4B, eluted with glutathione, dialysed)
T1 sequence (looked up): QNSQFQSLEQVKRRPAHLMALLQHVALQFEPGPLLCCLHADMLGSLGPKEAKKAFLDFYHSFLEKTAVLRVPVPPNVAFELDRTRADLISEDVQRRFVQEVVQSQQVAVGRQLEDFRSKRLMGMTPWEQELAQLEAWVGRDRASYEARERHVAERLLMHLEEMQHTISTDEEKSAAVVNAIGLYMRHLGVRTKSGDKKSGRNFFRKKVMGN

[2] = target: T2, GST-p115-RH (human p115RhoGEF amino acid residues 1-252, N-terminal region including the RH domain) (human, UniProt Q92888 1-252); test: pull-down; GST-RH protein on glutathione-Sepharose 4B, untagged Gα13iN (2 μg) in buffer A (20 mM HEPES, 5 mM βME, 1 mM MgCl2, 100 mM NaCl, 10 μM GDP, 0.1% C12E10, pH 8.0) with AlF4^- (30 μM AlCl3, 5 mM MgCl2, 5 mM NaF), 60 min at 4 °C; blot with Gα13 antibodies
T2 construct: human p115RhoGEF, amino acid residues 1-252 (the results once say 1-246); also called p115-RhoGEF-RH; source: E. coli BL21[DE3], purified (glutathione-sepharose 4B, eluted with glutathione, dialysed)
T2 sequence (looked up): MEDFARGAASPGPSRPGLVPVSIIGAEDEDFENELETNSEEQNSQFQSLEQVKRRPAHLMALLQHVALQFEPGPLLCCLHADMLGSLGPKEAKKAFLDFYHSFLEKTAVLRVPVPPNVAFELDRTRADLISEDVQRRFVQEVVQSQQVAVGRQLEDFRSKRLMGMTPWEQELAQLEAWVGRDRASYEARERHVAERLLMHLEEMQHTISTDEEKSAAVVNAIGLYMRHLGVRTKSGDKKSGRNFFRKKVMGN

[3] = target: T3, GST-LARG-RH (human LARG amino acid residues 319-598) (human, UniProt Q9NZN5 319-598); test: pull-down; as a2 but buffer A with 10 μM GDP and mAAT-C_(3-16) added instead of AlF4^-
T3 construct: human LARG (leukemia-associated RhoGEF), amino acid residues 319-598; also called leukemia-associated RhoGEF RH; source: E. coli BL21[DE3], purified (glutathione-sepharose 4B, eluted with glutathione, dialysed)
T3 sequence (looked up): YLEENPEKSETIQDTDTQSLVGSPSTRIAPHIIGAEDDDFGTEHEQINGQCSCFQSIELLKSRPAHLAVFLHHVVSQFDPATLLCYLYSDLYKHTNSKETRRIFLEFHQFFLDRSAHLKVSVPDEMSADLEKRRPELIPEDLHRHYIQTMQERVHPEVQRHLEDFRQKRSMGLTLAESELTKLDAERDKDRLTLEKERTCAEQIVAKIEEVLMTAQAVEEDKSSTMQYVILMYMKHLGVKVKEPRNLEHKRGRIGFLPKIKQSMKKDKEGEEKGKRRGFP

binding result [1]: binds
binding result [2]: binds
binding result [3]: binds
B1: untagged Gα13iN recombinant protein (GDP-bound) (other, rat | mouse, UniProt P10824 1-28, looked up)
chain: MGCTLSAEDKAAVERSKMIDRNLREDGERLVKILLLGAGESGKSTFLKQMRIIHGQDFDQRAREEFRPTIYSNVIKGMRVLVDAREKLHIPWGDNKNQLHGDKLMAFDTRAPMAAQGMVETRVFLQYLPAIRALWEDSGIQNAYDRRREFQLGESVKYFLDNLDKLGVPDYIPSQQDILLARRPTKGIHEYDFEIKNVPFKMVDVGGQRSERKRWFECFDSVTSILFLVSSSEFDQVLMEDRQTNRLTESLNIFETIVNNRVFSNVSIILFLNKTDLLEEKVQVVSIKDYFLEFEGDPHCLRDVQKFLVECFRGKRRDQQQRPLYHHFTTAINTENIRLVFRDVKDTILHDNLKQLMLQ
notes: N-terminal region (αN helix) of rat Gαi1, amino acid residues 1-28; A few vector residues are likely left after PreScission cleavage of the pGEX-6P-1 product (surmise); also called Gα13iN・GDP; Gα13・GDP; source: E. coli BL21[DE3], purified (glutathione-sepharose 4B, cut off the column with PreScission Protease, dialysed; GDP added to 10 μM)
